Twelve molecules from patent publication US20210061908A1 (IOMX THERAPEUTICS, published 2021) can be followed below.

As usually defined, the EC50 is the concentration giving half of the maximal effect. The term Kd denotes a measure of binding affinity in units of concentration. Higher therefore signals weaker binding. Broadly, the EC50 (read off the curve) is the concentration giving half of the maximal effect. Read a low EC50 (read off the curve) as greater potency.

Where a chain is given by its changes, count along the chain named.

T1: human IGSF11 (VSIG3) expressed on the surface of cells (human, UniProt Q5DX21 23-431)
T1 construct: one molecule for all cell lines; the cell line is named under assay; also called IGSF11-expressing cells; HEK-OE
T1 sequence: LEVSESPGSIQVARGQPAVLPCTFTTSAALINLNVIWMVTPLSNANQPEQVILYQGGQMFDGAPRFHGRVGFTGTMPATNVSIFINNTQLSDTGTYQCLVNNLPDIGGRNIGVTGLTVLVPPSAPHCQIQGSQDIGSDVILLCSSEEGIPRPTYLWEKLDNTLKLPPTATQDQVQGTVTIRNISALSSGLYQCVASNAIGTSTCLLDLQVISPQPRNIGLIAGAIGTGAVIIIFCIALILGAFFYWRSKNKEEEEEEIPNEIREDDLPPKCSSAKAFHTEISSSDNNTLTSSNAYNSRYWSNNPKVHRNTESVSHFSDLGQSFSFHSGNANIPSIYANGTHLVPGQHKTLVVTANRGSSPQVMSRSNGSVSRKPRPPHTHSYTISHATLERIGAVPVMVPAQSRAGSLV

T2: IGSF11 (VSIG3), construct used in SPR and BLI not stated (UniProt Q5DX21 23-241, limits assumed)
T2 sequence (looked up): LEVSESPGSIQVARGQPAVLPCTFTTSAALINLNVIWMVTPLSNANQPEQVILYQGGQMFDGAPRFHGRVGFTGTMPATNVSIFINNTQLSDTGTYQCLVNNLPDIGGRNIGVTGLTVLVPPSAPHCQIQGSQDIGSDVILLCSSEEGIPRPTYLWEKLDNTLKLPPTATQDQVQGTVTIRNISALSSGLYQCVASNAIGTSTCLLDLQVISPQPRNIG

T3: extracellular domain (ECD) of human IGSF11 (VSIG3), HIS-tagged (human, UniProt Q5DX21 23-241, biotinylated in the ELISA of Example 4 (site not stated))
T3 construct: also called HIS-IGSF11; IGSF11-HIS; not shown: HIS6 tag
T3 sequence: T2 sequence (looked up)

B1: A-013 (human IgG1 format) (antibody, V domains shown)
VH: EVQLVESGGGLIQPGGSLRLSCAASGFTVSSNYMSWVRQAPGKGLEWVSVIYSGGSTYYADSVKGRFTISRDNSKNTLYLQMNSLRAEDTAVYYCARGNPYYYGDLQVNFDYWGQGTLVTVSS
VL: QAVVTQEPSLTVSPGGTVTLTCASSTGAVTSAYYPNWFQQKPGQAPRALIYSTSNKHSWTPARFSGSLLGGKAALTLSGVQPEDEADYYCLLYYGGAWVFGGGTKLTVL
notes: human IgG1 format
B2: A-024 (human IgG1 format) (antibody, V domains shown)
VH: QMQLVQSGAEVKKPGSSVKVSCKASGGTFSSYAISWVRQAPGQGLEWMGWISAYNGNTNYAQKLQGRVTMTTDTSTSTAYMELRSLRSDDTAVYYCASLGSYGYTGAFDIWGQGTMATVSS
VL: QSALTQPASVSGSPGQSITISCTGTSSDVGGYNYVSWYQQHPGKAPKLMIYEVSNRPSGVSNRFSGSKSGNTASLTISGLQAEDEADYYCSSYTSSSTLVVFGGGTKLTVL
B3: A-022 (human IgG1 format) (antibody, V domains shown)
VH: EVQLLESGPGLVKPSQTLSLTCTVSGGSISSGGYYWSWIRQHPGKGLEWIGYIYYSGSTYYNPSLKSRVTISVDTSKNQFSLKLSSVTAADTAVYYCARASRSTDYYFDYWGQGTLVTVSS
VL: QPGLTQPPSMSYGLGQTATLTCTGNRNNIGDQGAAWLQQHQGHPPKLLSYRNNNGPSGISERLSASRSGNTASLTISGLQPEDEADYYCSAWDSSLRAWVFGGGTKLTVL
notes: human IgG1 format
B4: A-007 (human IgG1 format) (antibody, V domains shown)
VH: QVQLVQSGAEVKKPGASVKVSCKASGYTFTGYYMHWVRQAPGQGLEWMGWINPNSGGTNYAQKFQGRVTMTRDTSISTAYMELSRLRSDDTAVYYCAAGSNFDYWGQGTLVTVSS
VL: QSALTQPASVSGSPGQSITIACTGSSSDIGSFSYVSWYQQRPGKAPTLIIYGVNNRPLGVSRRFSGSKSGNTASLSISGLQAEDEADYYCSSYTRRSTVIFGGGTKLTVL
notes: human IgG1 format
B5: A-011 (human IgG1 format) (antibody, V domains shown)
VH: QVQLVESGGGVVQPGRSLRLSCAASGFTFSSYAMHWVRQAPGKGLEWVAVISYDGSNKYYADSVKGRFTISRDNSKNTLYLQMNSLRAEDTAVYYCAEGGALNYYGMDVWGQGTTVTVSS
VL: SSELTQDPGVSVALGQTVRITCQGDSLRHFYATWYQQKPGQAPILVIYGKNNRPSGIPDRFSGSSSEDTASLTITGAQAEDEADYYCQSRDPRNNHLIFGGGTKLIVL
notes: human IgG1 format
B6: A-004 (human IgG1 format) (antibody, V domains shown)
VH: EVQLVESGGGLVKPGGSLRLSCAASGFTFSSYSMNWVRQAPGKGLEWVSSISSSSSYIYYADSVKGRFTISRDNAKNSLYLQMNSLRAEDTAVYYCARGQLLWFGESALIDAFDIWGQGTMVTVSS
VL: EIVLTQSPSSLSASVGDRVTITCRASQSISSYLNWYQLKPGKAPKLLIYAASILQSGVPSRFSGSGSGTDFTLTISSLQPEDFAAYYCQQSYSTPRTFGQGTKLEIK
notes: human IgG1 format
B7: A-034 (human IgG1 format) (antibody, V domains shown)
VH: QMQLVQSGGGLVKPGGSLRLSCAASGFTFSSYTMNWVRQAPGKGLEWVSSISSIGTYIYYADSVKGRFTISRDNAKNSLYLQMNSLRAEDTAVYYCARVLLSGSYYGYFDSWGQGTLVTVSS
VL: QSVLTQPPSVSGAPGQRVTISCTGSSSNIGAGYDVHWYQQLPGTAPKLFIYGNSNRPSGVPDRFSGSKSGTSASLAITGLQAEDEADYYCQSYDSSLSGYVFGTGTKVTVL
notes: human IgG1 format
B8: A-026 (human IgG1 format) (antibody, V domains shown)
VH: QVQLQESGPGLVKPSQTLSLTCTVSGGSISSGGYYWSWIRQHPGKGLEWIGYIYYSGSTYYNPSLKSRVTISVDTSKNQFSLKLSSVTAADTAVYYCASWSLGTSNHGWFDPWGQGTLVTVSS
VL: QSVLTQPPSASGTPGQRVTISCSGSSSNIGSNTVNWYQQLPGTAPKLLISDNNNRPSGVPDRFSGSKSGTSASLAITGLQAEDEADYYCQSYDSNLSGWVFGGGTKLTVL
notes: human IgG1 format
B9: B-003 (chain-swapped, human IgG1 format) (antibody, V domains shown)
VH: B1 VH with V5L, A24V
VL: B1 VL with G16E, A32G, K41R, H57D, D87E
notes: VH of A-012 with VL of A-005; IgG1 format; also called B3; Chains-B-003
B10: B-005 (chain-swapped, human IgG1 format) (antibody, V domains shown)
VH: B1 VH with V5L, A24V
VL: B1 VL with L20P, A23G, A32G, Y33N, Y34L, F64I, D87E
notes: VH of A-012 with VL of A-002; IgG1 format; also called B5; Chains-B-005
B11: B-007 (chain-swapped, human IgG1 format) (antibody, V domains shown)
VH: B1 VH
VL: B1 VL
notes: VH of A-006 with VL of A-013; IgG1 format; also called B7; Chains-B-007
B12: B-008 (chain-swapped, human IgG1 format) (antibody, V domains shown)
VH: B1 VH
VL: B1 VL with L20P, A23G, A32G, Y33N, Y34L, F64I, D87E
notes: VH of A-006 with VL of A-002; IgG1 format; also called B8; Chains-B-008

One assay addresses T1, human IGSF11 (VSIG3) expressed on the …. The experiment in a line: FACS, IgG1 format, DMS 273 cells. In general terms: In flow cytometry, cells or beads pass a laser one at a time.
Molecule B1 had an EC50 above 50 nM.
Same read-out and setting: under B2 stands below 10 nM; under B3, 10 to 50 nM; under B4, above 10 nM.

For another assay, the target named is T2, IGSF11 (VSIG3), construct used in SPR …. The experiment in a line: BLI (Octet), IgG1 format; IGSF11 construct not stated.
B5 had a Kd of 10 to 20 nM.

The next assay shares this target. Nature of the assay: SPR (Biacore), IgG1 format; IGSF11 construct not stated. Background: Surface plasmon resonance follows binding to a sensor surface in real time, without labels.
In turn, B1 displayed a Kd of 100 to 250 nM.
On the same count and under the same terms, under B2 stands above 500 nM.
Still for that read-out and setting: the value for B6 was 100 to 250 nM; that for B5 was 250 to 500 nM.
The same measure, in the same setting: the value for B7 was 250 to 500 nM.

A further assay concerns the target T1, human IGSF11 (VSIG3) expressed on the …. Nature of the assay: FACS, IgG1 format, recombinant HEK cells expressing IGSF11 (HEK-OE).
B1: the EC50 was 10 to 50 nM.
The same measure, in the same setting: under B3 stands 10 to 50 nM.
Still for that read-out and setting: the value for B8 was above 50 nM.
Still for that read-out and setting: the value for B4 was above 10 nM.
On to B5, for which the EC50 is above 50 nM.

The target is the same in a further assay. Nature of the assay: FACS on DMS 273 cells treated with scrambled control siRNA (SC).
Take B8: the percentage binding is 64.4%.
B4 returned a percentage binding of 82.3%.
As for B5, the percentage binding came out at 6.95%.

The next assay shares this target. Nature of the assay: FACS on M579-A2-luc cells treated with scrambled control siRNA (SC).
Molecule B8 came in with a percentage binding of 11.6%.
B4 displayed a percentage binding of 65.6%.
Consider B5, for which the percentage binding was 2.05%.

For a further assay, the target named is CL-11 (C). The experiment in a line: FACS on CL-11 cells (do not express IGSF11; negative cell line) treated with IGSF11 siRNA (KD).
With B8, the percentage binding stood at 3.47%.
On the same count and under the same terms, under B4 stands 13.2%; under B5, 4.86%.

Another assay concerns the target T1, human IGSF11 (VSIG3) expressed on the …. Nature of the assay: FACS on DMS 273 cells treated with IGSF11 siRNA (KD: target knocked down, specificity control).
Consider B8, for which the percentage binding turned out to be 3.81%.
Regarding B4, the percentage binding was found to be 34.2%.
Same read-out and setting: the value for B5 was 3.4%.

The next assay deals with T3, extracellular domain (ECD) of human …. The experiment in a line: ELISA, coated IGSF11-HIS, IgG1 format; EC50 grade (* >1 nM, ** 0.05-1 nM, *** 0.02-0.05 nM, **** <0.02 nM). (ELISA stands for enzyme-linked immunosorbent assay.)
On to B1, for which the EC50 was below 0.02 nM.
The same measure, in the same setting: under B2 stands 0.02 to 0.05 nM; under B6, below 0.02 nM; under B3, below 0.02 nM.
As for B4, the EC50 is below 0.02 nM.
For B5, the EC50 was below 0.02 nM.
Same read-out and setting: under B7 stands 0.05 to 1 nM.

A further assay has as its target T1, human IGSF11 (VSIG3) expressed on the …. Nature of the assay: FACS on M579-A2-luc cells treated with IGSF11 siRNA (KD: target knocked down, specificity control).
Regarding B8, the percentage binding was determined as 2.01%.
Still for that read-out and setting: under B4 stands 9.15%; under B5, 2.41%.

The target in a further assay is CL-11 (C). The experiment in a line: FACS on CL-11 cells (do not express IGSF11; negative cell line) treated with scrambled control siRNA (SC).
In turn, B8 gave a percentage binding of 3.6%.
Same read-out and setting: the value for B4 was 8.88%; that for B5 was 2.87%.

The next assay has as its target T3, extracellular domain (ECD) of human …. The experiment in a line: ELISA: IGSF11-HIS coated, IgG1 antibody titrated, anti-human antibody-HRP and TMB; X-axis nM and Y-axis absorbance per legend paragraph 30.
B9: the “EC50 (read off the curve)” value was around 0.009 nM.
On the same count and under the same terms, under B10 stands around 0.01 nM.

Another assay shares this target. Nature of the assay: blocking ELISA (Example 5): IgG titrated and pre-incubated with 200 nM his-tagged IGSF11 ECD, complexes added to immobilised VSIR-Fc, bound IGSF11 detected with anti-hexahistidine-HRP; blocked ligand: VSIR-Fc.
As to B11, the “IC50 (read off the curve)” value was around 3 nM.
Same read-out and setting: the value for B12 was around 4 nM.

The next assay has the same target. The description is as above. This is another data set of the same source.
For B9, the “IC50 (read off the curve)” value was around 2 nM.
The same measure, in the same setting: under B10 stands around 2 nM.
